Assay results from patent US11155602B2, “Polypeptides targeting HIV fusion” (priority 2015, dated 2021).
Substitutions are numbered along the chain they refer to.

B1: 306 (protein)
chain: MGHHHHHHGGSVSDVPRDLEVVAATPTSLLISWEYKVDYRRYYRITYGETGGNSPVQEFTVPSVLSTATISGLKPGVDYTITVYAVTYGDDSAPISINYRTEID
modifications: Adnectin
B2: 307 (protein)
chain: B1 chain with S28G, D38H, Y39P, R40Y
modifications: Adnectin
B3: 308 (protein)
chain: B1 chain with D38N, Y39A, R40W
modifications: Adnectin
B4: 309 (protein)
chain: B1 chain with D38H, Y39P, R40Y, Y88H
modifications: Adnectin
B5: 310 (protein)
chain: B1 chain with D38H, Y39P, R40Y, S71N
modifications: Adnectin
B6: 133 (protein)
chain: B1 chain with D38H, R40D, D90V, A93D
modifications: Adnectin
B7: 311 (protein)
chain: B1 chain with D38H, Y39P, R40Y, T69E
modifications: Adnectin
B8: 312 (protein)
chain: B1 chain with D38H, Y39P, R40Y, T60L
modifications: Adnectin
B9: 313 (protein)
chain: B1 chain with D38A, Y39H, R40G
modifications: Adnectin
B10: 314 (protein)
chain: B1 chain with D38A, R40K
modifications: Adnectin
B11: 315 (protein)
chain: B1 chain with Y39R, R40W
modifications: Adnectin
B12: 316 (protein)
chain: B1 chain with K36A, D38H, Y39P, R40Y
modifications: Adnectin
B13: 317 (protein)
chain: B1 chain with D38N, Y39A, R40Y
modifications: Adnectin
B14: 318 (protein)
chain: B1 chain with D38N, Y39G, R40Y
modifications: Adnectin
B15: 319 (protein)
chain: B1 chain with D38S, Y39H, R40G
modifications: Adnectin
B16: 320 (protein)
chain: B1 chain with D38T, Y39T, R40W
modifications: Adnectin
B17: 134 (protein)
chain: MGHHHHHHGGSVSDVPRDLEVVAATPTSLLISWDAPAVTVEQYYIAYYDEKEPSSYQYFRVPGSKSTATISGLKPGVEYAIFVNAVTRSGVLPEFSLPISINYRTEGS
modifications: Adnectin
B18: 321 (protein)
chain: MGHHHHHHGGSVSDVPRDLEVVAATPTSLLISWEYKVHPYRYYRITYGETGGNSPVQEFTVPSVLSSAXLSGLKPGVDYTITVYAVTYGDDSAPISINYRTEID
modifications: not fully specified
B19: 322 (protein)
chain: B1 chain with D38H, Y39P, R40Y, D90T
modifications: Adnectin
B20: 323 (protein)
chain: B1 chain with D38H, Y39P, R40Y, D91Q
modifications: Adnectin
B21: 324 (protein)
chain: B1 chain with D38H, Y39P, R40Y, A93N
modifications: Adnectin
B22: 325 (protein)
chain: B1 chain with D38N, Y39H, R40D
modifications: Adnectin
B23: 326 (protein)
chain: B1 chain with D38S, Y39H
modifications: Adnectin
B24: 327 (protein)
chain: B1 chain with D38T, R40E
modifications: Adnectin
B25: 329 (protein)
chain: B1 chain with D38H, Y39P, R40Y, D91V
modifications: Adnectin
B26: 330 (protein)
chain: B1 chain with D38H, Y39P, R40Y, A93P
modifications: Adnectin
B27: 135 (protein)
chain: B1 chain with E34K, K36N, D38N, Y39A, R40Y, D90V, D91H, A93S
modifications: Adnectin
B28: 332 (protein)
chain: B1 chain with D38N, Y39R, R40W
modifications: Adnectin
B29: 333 (protein)
chain: B1 chain with D38S, Y39P, R40W
modifications: Adnectin
B30: 334 (protein)
chain: B1 chain with D38T
modifications: Adnectin
B31: 335 (protein)
chain: B1 chain with D38H, Y39P, R40Y, D91E
modifications: Adnectin
B32: 336 (protein)
chain: B1 chain with D38H, Y39P, R40Y, A93D
modifications: Adnectin
B33: 337 (protein)
chain: B1 chain with D38H, Y39P, R40Y, A93Y
modifications: Adnectin
B34: 338 (protein)
chain: B1 chain with D38N, Y39R, R40Y
modifications: Adnectin
B35: 339 (protein)
chain: B1 chain with D38S, Y39R, R40W
modifications: Adnectin
B36: 136 (protein)
chain: B17 chain with A46G, D49V, K51A, R60F, E78D, R88A, V91R, L92G, F95Y
modifications: Adnectin
B37: 341 (protein)
chain: B1 chain with D38H, Y39P, R40Y, E58S
modifications: Adnectin
B38: 342 (protein)
chain: B1 chain with D38H, Y39P, R40Y, D90I
modifications: Adnectin
B39: 343 (protein)
chain: B1 chain with D38H, Y39P, R40Y, D91H
modifications: Adnectin
B40: 344 (protein)
chain: B1 chain with D38H, Y39P, R40Y, A93E
modifications: Adnectin
B41: 345 (protein)
chain: B1 chain with D38H, Y39P, R40Y, A93R
modifications: Adnectin
B42: 346 (protein)
chain: B1 chain with D38H, Y39P, R40Y, N98Q
modifications: Adnectin
B43: 347 (protein)
chain: B1 chain with D38N
modifications: Adnectin
B44: 348 (protein)
chain: B1 chain with D38S, Y39T, R40W
modifications: Adnectin
B45: 349 (protein)
chain: B1 chain with D38Y, Y39A, R40Y
modifications: Adnectin
B46: 350 (protein)
chain: B1 chain with D38H, Y39P, R40Y, E58T
modifications: Adnectin
B47: 137 (protein)
chain: MGVSDVPRDLEVVAATPTSLLISWHDGIGEERYYRITYGETGGNSPVQEFTVPMDDITATISGLKPGVDYTITVYAVTVGDVISVLHEPISINYRTEIDKPSQHHHHHH
modifications: Adnectin
B48: 351 (protein)
chain: B1 chain with D38H, Y39P, R40Y, E58A, D90K
modifications: Adnectin
B49: 352 (protein)
chain: B1 chain with D38H, Y39P, R40Y, D91L
modifications: Adnectin
B50: 353 (protein)
chain: B1 chain with D38H, Y39P, R40Y, A93G
modifications: Adnectin
B51: 354 (protein)
chain: B1 chain with D38S, Y39A, R40W
modifications: Adnectin
B52: 355 (protein)
chain: B1 chain with D38S, Y39T, R40Y
modifications: Adnectin

Tested on: NL-Rluc virus
Test: Combinectin potency assay: antiviral EC50, NL-Rluc virus in MT-2 cells, luciferase readout
Type: cell-based, HIV-1
Conditions: Anti-N17 Adnectin, Table 3
In short: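 MT-2 cells infected with replication-competent NL-Rluc HIV (nef replaced by Renilla luciferase) at MOI 0.01 for 1 h, then added to threefold-diluted peptides (11 concentrations, triplicate). After 4–5 days, luciferase measured by Dual Luciferase; EC50 relative to no-peptide wells.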

| Molecule | EC50 |
| --- | --- |
| B1 | > 1000 nM |
| B2 | 205 nM |
| B3 | > 1000 nM |
| B4 | > 1000 nM |
| B5 | 62 nM |
| B6 | 42 nM |
| B7 | 42 nM |
| B8 | 37 nM |
| B9 | > 1000 nM |
| B10 | > 1000 nM |
| B11 | > 1000 nM |
| B12 | 331 nM |
| B13 | > 1000 nM |
| B14 | > 1000 nM |
| B15 | > 1000 nM |
| B16 | > 1000 nM |
| B17 | 5 nM |
| B18 | 55 nM |
| B19 | 96 nM |
| B20 | 126 nM |
| B21 | 487 nM |
| B22 | > 1000 nM |
| B23 | > 1000 nM |
| B24 | > 1000 nM |
| B25 | 102 nM |
| B26 | 99 nM |

| Molecule | EC50 |
| --- | --- |
| B27 | > 1000 nM |
| B28 | > 1000 nM |
| B29 | > 1000 nM |
| B30 | > 1000 nM |
| B31 | 112 nM |
| B32 | 171 nM |
| B33 | > 1000 nM |
| B34 | > 1000 nM |
| B35 | > 1000 nM |
| B36 | 5 nM |
| B37 | > 1000 nM |
| B38 | > 1000 nM |
| B39 | 122 nM |
| B40 | > 1000 nM |
| B41 | > 1000 nM |
| B42 | 83 nM |
| B43 | > 1000 nM |
| B44 | > 1000 nM |
| B45 | > 1000 nM |
| B46 | 191 nM |
| B47 | 80 nM |
| B48 | 215 nM |
| B49 | 77 nM |
| B50 | 19 nM |
| B51 | > 1000 nM |
| B52 | > 1000 nM |
